First the molecules themselves.
T1: ANGPTL3 (Homo sapiens, UniProt Q9Y5C1)
T1 construct: In humans, Evinacumab (a therapeutic mAb developed against ANGPTL3) caused a dose-dependent reduction; host or cells: human subjects (circulating endogenous protein)
T1 sequence (Q9Y5C1 17-460): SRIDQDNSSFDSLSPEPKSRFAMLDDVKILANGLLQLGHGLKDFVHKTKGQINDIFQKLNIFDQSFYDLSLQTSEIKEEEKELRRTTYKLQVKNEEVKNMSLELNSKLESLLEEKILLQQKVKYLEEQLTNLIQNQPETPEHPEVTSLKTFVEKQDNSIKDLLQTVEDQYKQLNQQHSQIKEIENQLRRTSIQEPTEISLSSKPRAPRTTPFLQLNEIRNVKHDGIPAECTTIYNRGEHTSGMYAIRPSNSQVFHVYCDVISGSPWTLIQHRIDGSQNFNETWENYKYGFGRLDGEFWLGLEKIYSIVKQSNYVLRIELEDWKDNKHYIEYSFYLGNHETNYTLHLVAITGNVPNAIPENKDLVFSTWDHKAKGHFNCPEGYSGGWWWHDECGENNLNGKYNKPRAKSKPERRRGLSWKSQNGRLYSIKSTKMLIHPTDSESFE

Square brackets hold non-standard residues; d marks the D form. Ends that are not written are not given here. APPA = 2-aminophenyl pentanoic acid; hArg = N=C(N)NCCCC[C@H](N)C(=O)O; Cit = NC(=O)NCCC[C@H](N)C(=O)O; Nle = CCCC[C@H](N)C(=O)O; Aib = CC(C)(N)C(=O)O

One assay has as its system Anti-ANGPTL3 polyclonal antibody (ABC83, Sigma). Briefly: Affinity determination of peptides with anti-ANGPTL3 antibody by surface plasmon resonance (Biacore T200). The conditions noted are these: SPR, peptide 1 mM in 1×PBS over immobilized anti-ANGPTL3 pAb, 25° C., response 5 s before end of injection. It counts as binding. As for the experimental part: Affinity of novel peptides of the present invention with anti-ANGPTL3 antibody ‘ANG’ was analysed by surface plasmon resonance (SPR), using a Biacore instrument (Biacore T200, GE Healthcare). SPR experiments were performed at […] with a BIACORE T200 apparatus (GE Healthcare, Uppsala, Sweden).
Surface Preparation: (Procedure for Antibody immobilization) Series S Sensor Chip CM5 surface was activated by a 7-min injection of EDC-NHS. Anti-ANGPTL3 polyclonal antibody (ABC83, Sigma), diluted to 4.5 μg/mL in 10 mM acetate buffer (pH 4.0), was immobilized on one of the four flow cells of a Series S Sensor Chip CM5 with the aim of 10000 RU (resonance units) using amine-coupling. The surface was blocked with 1M ethanolamine (pH 8.5). One flow cell was immobilized as blank for reference subtraction (without antibody). 1×PBS was used as running buffer.
Binding experiments: 1 mM stock of novel peptides of the present invention were made in 1×PBS and binding studies were conducted by passing over blank as well as ligand (anti-ANGPTL3 pAb) immobilized surface. Each cycle consisted of 120 s analyte (novel peptides of the present invention) injection at a flow rate of 10 μL/min (the association phase), followed by a dissociation phase of 300 s. Purified human recombinant ANGPTL3 (FLAG-tag, 91009-1, bps bioscience) was used as positive control (1 μM) and was analyzed under identical condition. Complete dissociation of ANGPTL3 and anti-ANGPTL3 antibody interaction was achieved by regenerating surface with 10 mM glycine/HCl (pH 2.0) for 40 s at a flow rate of 10 μl/min injection.
Data Analysis: The data was analyzed using the Biacore T200 Evaluation software. All the curves were initially reference-subtracted (from blank immobilized surface) and then subtracted from zero analyte concentration. Baselines were adjusted to zero for all curves and data was presented as Relative response or binding RU (Average of 5 s window) 5 s before end of sample injection.
Affinity of novel peptides of vaccine with ANGPTL3 antibody ANG were analysed by surface plasmon resonance (SPR), using a Biacore instrument (Biacore T200, GE Healthcare). SPR experiments were performed at 25° C. with a BIACORE T200 apparatus (GE Healthcare, Uppsala, Sweden).
On the technique in general: SPR reads the build-up and loss of mass on a sensor chip optically.
Take “82 (C[Cit]FAMLDDV[Cit]ILANGLLQLGHGLKDFVHKTKGQI) [compound 82]”: the Relative response is 5518.3 RU. Same read-out and setting: for “85 (C[Cit]FAMLDDVLILANGLLQLGHGLKDFVHKTKGQI) [compound 85]” the value was 4924.7 RU; for “6 (RFAMLDDV[Cit]ILANGLLQLGHGLKDFVHKTKGQI) [compound 6]”, 6084.1 RU.

“49 (CRFAMLDDVKILANGLLQLGHGLKDFVHKTKGQI; artificial ANGPTL3 peptide) [compound 49]” showed a Relative response of 5464.1 RU. Still for that read-out and setting: with “83 (C[hArg]FAMLDDVKILANGLLQLGHGLKDFVHKTKGQI) [compound 83]” the figure was 5895.2 RU; with “87 (CRFAMLDDV[Cit]ILANGLLQLGHGLKDFVHKTKGQI) [compound 87]”, 5820.9 RU. On the same count and under the same terms, for “5 (CRFAM[Nle]DDVKILANGLLQLGHGLKDFVHKTKGQI) [compound 5]” the value was 5850 RU. “78 (RF[Aib]MLDDVKILANGLLQLGHGLKDFVHKTKGQI) [compound 78]” gave a Relative response of 5539.6 RU.

As for “86 (CR[APPA]AMLDDVKILANGLLQLGHGLKDFVHKTKGQI) [compound 86]”, the Relative response was 5130.1 RU. Regarding “79 ([Cit]FAMLDDV[Cit]ILANGLLQLGHGLKDFVHKTKGQI) [compound 79]”, the Relative response stood at 6152.5 RU. The same measure, in the same setting: for “1 (RFAMLDDVKILANGLLQLGHGLKDFVHKTKGQI; artificial ANGPTL3 peptide) [compound 1]” the value was 4832.6 RU; for “80 ([hArg]FAMLDDVKILANGLLQLGHGLKDFVHKTKGQI) [compound 80]”, 5308.2 RU.

The molecule “2 (R[APPA]AMLDDVKILANGLLQLGHGLKDFVHKTKGQI) [compound 2]” returned a Relative response of 5674 RU. “84 (CRF[Aib]MLDDVKILANGLLQLGHGLKDFVHKTKGQI) [compound 84]” came in with a Relative response of 5813.7 RU.

The target of another assay is T1, ANGPTL3.
Experiment: not given
The conditions noted are these: humans, dose-dependent; cited from earlier work.
Turning to Evinacumab, the “reduction in LDL cholesterol levels” value is reported as “up to 23%” and the “reduction in fasting triglyceride levels” value is “up to 76%”.

In a further assay the target is Anti-ANGPTL3 polyclonal antibody (ABC83, Sigma). Briefly: SPR (Biacore T200), antibody immobilised on CM5, peptide as analyte at 1 mM.
Settings: not given
C[Cit]FAMLDDVLILANGLLQLGHGLKDFVHKTKGQI [Peptide of SEQ ID NO. 85 (C-Cit-…)] yielded a Relative response of 4920 RU.

For the molecule RFAMLDDV[Cit]ILANGLLQLGHGLKDFVHKTKGQI [Peptide of SEQ ID NO. 6 (RFAMLDDV-Cit-…)], the Relative response was 6080 RU. In turn, [hArg]FAMLDDVKILANGLLQLGHGLKDFVHKTKGQI [Peptide of SEQ ID NO. 80 (Har-…)] showed a Relative response of 5310 RU.

Take CRF[Aib]MLDDVKILANGLLQLGHGLKDFVHKTKGQI [Peptide of SEQ ID NO. 84 (C-RF-Aib-…)]: the Relative response amounted to 5810 RU. The same measure, in the same setting: for RFAMLDDVKILANGLLQLGHGLKDFVHKTKGQI [Peptide of SEQ ID NO. 1 (…)] the value was 4830 RU; for [Cit]FAMLDDV[Cit]ILANGLLQLGHGLKDFVHKTKGQI [Peptide of SEQ ID NO. 79 (Cit-FAMLDDV-Cit-…)], 6150 RU; for C[hArg]FAMLDDVKILANGLLQLGHGLKDFVHKTKGQI [Peptide of SEQ ID NO. 83 (C-Har-…)], 5900 RU. Still for that read-out and setting: for CR[APPA]AMLDDVKILANGLLQLGHGLKDFVHKTKGQI [Peptide of SEQ ID NO. 86 (C-R-APPA-…)] the value was 5130 RU; for R[APPA]AMLDDVKILANGLLQLGHGLKDFVHKTKGQI [Peptide of SEQ ID NO. 2 (R-APPA-…)], 5670 RU. On the same count and under the same terms, for CRFAMLDDVKILANGLLQLGHGLKDFVHKTKGQI [Peptide of SEQ ID NO. 49 (…)] the value was 5460 RU. Turning to C[Cit]FAMLDDV[Cit]ILANGLLQLGHGLKDFVHKTKGQI [Peptide of SEQ ID NO. 82 (C-Cit-FAMLDDV-Cit-…)], the Relative response is 5520 RU. RF[Aib]MLDDVKILANGLLQLGHGLKDFVHKTKGQI [Peptide of SEQ ID NO. 78 (RF-Aib-…)] registered a Relative response of 5540 RU. On the same count and under the same terms, for CRFAMLDDV[Cit]ILANGLLQLGHGLKDFVHKTKGQI [Peptide of SEQ ID NO. 87 (C-RFAMLDDV-Cit-…)] the value was 5820 RU; for CRFAM[Nle]DDVKILANGLLQLGHGLKDFVHKTKGQI [Peptide of SEQ ID NO. 5 (CRFAM-Nle-…)], 5850 RU.

(Values after patent publication US20220380425A1, “ANGPTL3 BASED VACCINE FOR THE TREATMENT OF LIVER DISEASE” (CADILA HEALTHCARE LIMITED, priority 2019, published 2022).)
